Data taken from PMC10968512, “Cry Toxins Use Multiple ATP-Binding Cassette Transporter Subfamily C Members as Low-Efficiency Receptors in Bombyx mori” (Biomolecules, 2024).

B1: Cry1Da toxin (trypsin-activated) (domain or fragment)
chain: ETGNTVADISLGLINFLYSNFVPGGGFIVGLLELIWGFIGPSQWDIFLAQIEQLISQRIEEFARNQAISRLEGLSNLYKVYVRAFSDWEKDPTNPALREEMRIQFNDMNSALITAIPLFRVQNYEVALLSVYVQAANLHLSILRDVSVFGERWGYDTATINNRYSDLTSLIHVYTNHCVDTYNQGLRRLEGRFLSDWIVYNRFRRQLTISVLDIVAFFPNYDIRTYPIQTATQLTREVYLDLPFINENLSPAASYPTFSAAESAIIRSPHLVDFLNSFTIYTDSLARYAYWGGHLVNSFRTGTTTNLIRSPLYGREGNTERPVTITASPSVPIFRTLSYITGLDNSNPVAGIEGVEFQNTISRSIYRKSGPIDSFSELPPQDASVSPAIGYSHRLCHATFLERISGPRIAGTVFSWTHRSASPTNEVSPSRITQIPWVKAHTLASGASVIKGPGFTGGDILTRNSMGELGTLRVTFTGRLPQSYYIRFRYASVANRSGTFRYSQPPSYGISFPKTMDAGEPLTSRSFAHTTLFTPITFSRAQEEFDLYIQSGVYIDRIEFIPVTAT
B2: Cry8Ca toxin (trypsin-activated) (domain or fragment)
chain: ISAQDAVGTGIDIVSTIISGLGIPVLGEVFSILGSLIGLLWPSNNENVWQIFMNRVEELIDQKILDSVRSRAIADLANSRIAVEYYQNALEDWRKNPHSTRSAALVKERFGNAEAILRTNMGSFSQTNYETPLLPTYAQAASLHLLVMRDVQIYGKEWGYPQNDIDLFYKEQVSYTARYSDHCVQWYNAGLNKLRGTGAKQWVDYNRFRREMNVMVLDLVALFPNYDARIYPLETNAELTREIFTDPVGSYVTGQSSTLISWYDMIPAALPSFSTLENLLRKPDFFTLLQEIRMYTSFRQNGTIEYYNYWGGQRLTLSYIYGSSFNKYSGVLAGAEDIIPVGQNDIYRVVWTYIGRYTNSLLGVNPVTFYFSNNTQKTYSKPKQFAGGIKTIDSGEELTYENYQSYSHRVSYITSFEIKSTGGTVLGVVPIFGWTHSSASRNNFIYATKISQIPINKASRTSGGAVWNFQEGLYNGGPVMKLSGSGSQVINLRVATDAKGASQRYRIRIRYASDRAGKFTISSRSPENPATYSASIAYTNTMSTNASLTYSTFAYAESGPINLGISGSSRTFDISITKEAGAANLYIDRIEF
B3: Cry1Aa toxin (trypsin-activated) (domain or fragment)
chain: not shown
B4: Cry9Aa toxin (trypsin-activated) (domain or fragment)
chain: YPLANNPYSSALNLNSCQNSSILNWINIIGDAAKEAVSIGTTIVSLITAPSLTGLISIVYDLIGKVLGGSSGQSISDLSICDLLSIIDLRVSQSVLNDGIADFNGSVLLYRNYLEALDSWNKNPNSASAEELRTRFRIADSEFDRILTRGSLTNGGSLARQNAQILLLPSFASAAFFHLLLLRDATRYGTNWGLYNATPFINYQSKLVELIELYTDYCVHWYNRGFNELRQRGTSATAWLEFHRYRREMTLMVLDIVASFSSLDITNYPIETDFQLSRVIYTDPIGFVHRSSLRGESWFSFVNRANFSDLENAIPNPRPSWFLNNMIISTGSLTLPVSPSTDRARVWYGSRDRISPANSQFITELISGQHTTATQTILGRNIFRVDSQACNLNDTTYGVNRAVFYHDASEGSQRSVYEGYIRTTGIDNPRVQNINTYLPGENSDIPTPEDYTHILSTTINLTGGLRQVASNRRSSLVMYGWTHKSLARNNTINPDRITQIPLTKVDTRGTGVSYVNDPGFIGGALLQRTDHGSLGVLRVQFPLHLRQQYRIRVRYASTTNIRLSVNGSFGTISQNLPSTMRLGEDLRYGSFAIREFNTSIRPTASPDQIRLTIEPSFIRQEVYVDRIEFIPVNPT

Biological target: T1, Bombyx mori ABC transporter subfamily C member 1, BmABCC1-FLAG (Bombyx mori)
T1 construct: BmABCC1 (MRP1) of Bombyx mori, protein XP_012546136.1, cDNA XM_012690682.3 amplified from midgut cDNA; also called MRP1 (name in the NCBI)
T1 sequence (main, as listed by the source): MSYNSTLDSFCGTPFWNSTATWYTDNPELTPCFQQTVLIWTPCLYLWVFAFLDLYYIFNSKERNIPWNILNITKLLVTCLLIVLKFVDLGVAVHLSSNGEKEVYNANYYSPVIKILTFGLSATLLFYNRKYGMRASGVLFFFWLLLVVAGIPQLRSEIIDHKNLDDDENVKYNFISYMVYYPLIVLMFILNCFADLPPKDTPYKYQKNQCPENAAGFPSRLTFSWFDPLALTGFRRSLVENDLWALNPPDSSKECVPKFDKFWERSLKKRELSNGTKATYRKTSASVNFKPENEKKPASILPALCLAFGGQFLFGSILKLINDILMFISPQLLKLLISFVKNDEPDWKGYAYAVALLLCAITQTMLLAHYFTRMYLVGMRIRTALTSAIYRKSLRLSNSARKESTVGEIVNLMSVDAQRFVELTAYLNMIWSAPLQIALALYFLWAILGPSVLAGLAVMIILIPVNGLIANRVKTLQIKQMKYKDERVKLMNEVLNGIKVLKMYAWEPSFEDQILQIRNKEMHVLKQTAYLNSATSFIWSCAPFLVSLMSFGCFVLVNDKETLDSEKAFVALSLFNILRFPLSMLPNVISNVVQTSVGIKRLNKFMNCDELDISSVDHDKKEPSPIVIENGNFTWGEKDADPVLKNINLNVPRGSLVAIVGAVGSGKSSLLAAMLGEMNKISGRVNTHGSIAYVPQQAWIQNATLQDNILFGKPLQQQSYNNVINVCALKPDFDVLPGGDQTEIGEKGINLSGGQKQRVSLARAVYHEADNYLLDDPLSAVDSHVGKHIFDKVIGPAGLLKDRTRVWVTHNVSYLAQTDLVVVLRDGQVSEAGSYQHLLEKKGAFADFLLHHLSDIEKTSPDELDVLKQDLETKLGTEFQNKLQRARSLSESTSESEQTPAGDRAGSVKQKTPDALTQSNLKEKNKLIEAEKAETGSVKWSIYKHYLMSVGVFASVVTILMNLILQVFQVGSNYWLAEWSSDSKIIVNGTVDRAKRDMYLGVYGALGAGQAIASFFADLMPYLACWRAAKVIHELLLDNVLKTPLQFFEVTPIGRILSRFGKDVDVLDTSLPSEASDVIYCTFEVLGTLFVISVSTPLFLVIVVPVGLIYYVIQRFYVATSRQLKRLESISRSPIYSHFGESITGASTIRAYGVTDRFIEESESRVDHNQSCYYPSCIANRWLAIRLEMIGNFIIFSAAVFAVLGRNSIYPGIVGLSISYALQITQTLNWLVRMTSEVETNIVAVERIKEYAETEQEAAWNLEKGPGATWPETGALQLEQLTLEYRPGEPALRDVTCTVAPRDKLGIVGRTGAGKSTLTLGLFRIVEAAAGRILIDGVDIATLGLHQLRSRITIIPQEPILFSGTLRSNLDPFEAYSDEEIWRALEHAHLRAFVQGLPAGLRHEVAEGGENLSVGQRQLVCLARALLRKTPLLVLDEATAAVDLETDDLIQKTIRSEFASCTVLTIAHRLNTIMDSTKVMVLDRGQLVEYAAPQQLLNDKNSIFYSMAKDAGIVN
Test: SPR; BIACORE; BmABCC immobilised on a CM5 sensor chip; toxins (or BSA) in PBST (PBS with 0.005% Tween 20) at 500 and/or 1000 nM; 120 s association, 240 s dissociation; fitted with two-state reaction models (BIAevaluation ver.4.1)
Settings: both partners purified

Which Kd does the source give for B1 here?
Its Kd is 415 nM.

With B2 as the binder, how does the Kd read?
Its Kd is 34.8 nM.

For B3, which Kd is on record?
The Kd was 46100 nM.

For B4, which Kd is on record?
The Kd was 1.89 nM.

Biological target: T2, Bombyx mori ABC transporter subfamily C member 4, BmABCC4-FLAG (Bombyx mori)
T2 construct: BmABCC4 (MRP4) of Bombyx mori, protein XP_021205339.2, cDNA XM_021349664.2 amplified from midgut cDNA; also called MRP4 (name in the NCBI)
T2 sequence (main, as listed by the source): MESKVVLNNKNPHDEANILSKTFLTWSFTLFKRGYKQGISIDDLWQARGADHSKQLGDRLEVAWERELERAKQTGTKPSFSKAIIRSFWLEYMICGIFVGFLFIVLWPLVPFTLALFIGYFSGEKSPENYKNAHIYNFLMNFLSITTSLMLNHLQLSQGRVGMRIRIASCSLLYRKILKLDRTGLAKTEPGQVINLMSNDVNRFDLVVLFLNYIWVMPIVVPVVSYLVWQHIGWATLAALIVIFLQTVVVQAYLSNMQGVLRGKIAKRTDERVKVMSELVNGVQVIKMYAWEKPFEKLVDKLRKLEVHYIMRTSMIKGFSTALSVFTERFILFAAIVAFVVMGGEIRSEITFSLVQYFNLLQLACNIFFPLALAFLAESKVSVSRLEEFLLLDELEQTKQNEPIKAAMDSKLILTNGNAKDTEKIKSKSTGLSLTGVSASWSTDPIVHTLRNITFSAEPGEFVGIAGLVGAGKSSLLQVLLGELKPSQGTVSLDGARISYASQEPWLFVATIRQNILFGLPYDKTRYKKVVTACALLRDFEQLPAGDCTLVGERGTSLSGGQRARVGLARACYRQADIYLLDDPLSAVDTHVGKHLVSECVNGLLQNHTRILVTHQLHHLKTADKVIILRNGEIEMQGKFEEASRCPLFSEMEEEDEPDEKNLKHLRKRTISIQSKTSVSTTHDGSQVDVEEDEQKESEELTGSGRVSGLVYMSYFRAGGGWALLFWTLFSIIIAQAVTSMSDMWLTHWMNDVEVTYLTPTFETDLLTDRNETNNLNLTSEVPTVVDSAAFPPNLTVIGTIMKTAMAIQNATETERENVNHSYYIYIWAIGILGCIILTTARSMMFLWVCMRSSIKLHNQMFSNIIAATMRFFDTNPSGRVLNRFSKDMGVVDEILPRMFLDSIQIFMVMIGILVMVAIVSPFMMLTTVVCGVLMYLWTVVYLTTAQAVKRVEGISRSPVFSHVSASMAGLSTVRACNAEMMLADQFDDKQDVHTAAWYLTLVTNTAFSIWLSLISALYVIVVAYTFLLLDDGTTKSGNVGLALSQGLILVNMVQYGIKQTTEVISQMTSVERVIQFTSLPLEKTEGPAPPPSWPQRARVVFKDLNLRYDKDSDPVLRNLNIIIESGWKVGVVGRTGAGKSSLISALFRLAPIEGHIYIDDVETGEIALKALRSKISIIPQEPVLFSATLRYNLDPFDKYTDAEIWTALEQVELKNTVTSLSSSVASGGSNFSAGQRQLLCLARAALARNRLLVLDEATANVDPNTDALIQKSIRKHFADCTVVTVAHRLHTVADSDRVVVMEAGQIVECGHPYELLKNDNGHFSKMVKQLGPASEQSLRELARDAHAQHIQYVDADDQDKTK
Test: as above
Settings: both partners purified

How did the Kd turn out when B1 was run?
Its Kd is 63.7 nM.

How did the Kd turn out when B2 was run?
Its Kd is 61.7 nM.

B3 was tested. Which Kd did it give?
Its Kd is 267 nM.
